Assay results: patent US7132258B1, “Nucleic acid encoding vitamin D receptor related polypeptide” (University of Massachusetts, priority 1998, dated 2006)

Columns and labels:
[1] = target: T1, VDR (LBD of human Vitamin D receptor) (Homo sapiens, UniProt P11473); experiment: Yeast two-hybrid interaction with VDR; assay type: binding; settings: β-galactosidase ONPG assay, 1 μM ligand or vehicle
T1 construct: VDR (LBD of human Vitamin D receptor); expressed in transfected cells; host or cells: Saccharomyces cerevisiae Y190
T1 sequence (P11473 127-423 limits assumed): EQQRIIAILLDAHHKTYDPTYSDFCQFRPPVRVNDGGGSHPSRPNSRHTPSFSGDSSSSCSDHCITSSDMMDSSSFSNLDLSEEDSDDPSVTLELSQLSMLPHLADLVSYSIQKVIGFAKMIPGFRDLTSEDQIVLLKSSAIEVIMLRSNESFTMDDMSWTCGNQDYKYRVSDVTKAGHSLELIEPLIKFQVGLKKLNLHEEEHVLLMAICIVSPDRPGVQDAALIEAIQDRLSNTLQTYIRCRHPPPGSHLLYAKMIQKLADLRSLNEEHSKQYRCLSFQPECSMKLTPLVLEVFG
T1 sequence (Q9Y6Q9 401-1204 E704Q partner limits assumed): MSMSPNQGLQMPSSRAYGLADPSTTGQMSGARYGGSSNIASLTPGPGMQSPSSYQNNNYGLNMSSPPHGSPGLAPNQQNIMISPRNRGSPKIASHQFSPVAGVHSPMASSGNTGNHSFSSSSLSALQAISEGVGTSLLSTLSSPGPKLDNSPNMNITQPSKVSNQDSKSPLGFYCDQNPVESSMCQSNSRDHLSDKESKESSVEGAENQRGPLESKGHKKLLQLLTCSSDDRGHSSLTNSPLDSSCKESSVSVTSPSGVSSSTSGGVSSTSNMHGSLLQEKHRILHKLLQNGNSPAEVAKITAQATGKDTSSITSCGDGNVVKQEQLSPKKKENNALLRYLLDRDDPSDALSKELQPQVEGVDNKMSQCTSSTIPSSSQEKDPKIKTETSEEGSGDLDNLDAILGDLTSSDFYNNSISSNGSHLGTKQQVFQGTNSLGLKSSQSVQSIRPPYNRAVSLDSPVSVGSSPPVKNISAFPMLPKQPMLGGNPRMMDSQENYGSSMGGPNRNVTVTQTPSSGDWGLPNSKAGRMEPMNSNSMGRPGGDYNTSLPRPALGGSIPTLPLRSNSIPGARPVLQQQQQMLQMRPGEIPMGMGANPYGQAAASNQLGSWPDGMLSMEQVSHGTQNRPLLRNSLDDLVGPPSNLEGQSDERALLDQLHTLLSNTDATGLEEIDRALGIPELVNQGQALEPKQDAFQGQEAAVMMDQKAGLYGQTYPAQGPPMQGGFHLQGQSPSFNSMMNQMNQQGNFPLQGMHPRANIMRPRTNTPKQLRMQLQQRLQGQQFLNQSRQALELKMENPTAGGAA
Experimental: The protein—protein interactions between RAC3 and several steroid/nuclear receptors were analyzed by the yeast two-hybrid system. The original two-hybrid clone, RAC3.1 in pGAD10 vector, was retransformed together with yeast expression vectors for Gal4 DBD fusion of selected hormone receptor genes into Y190 cells. The receptors used include RAR (full-length hRARα), RXR (full-length hRXRα), VDR (LBD of human Vitamin D receptor), PPAR (LBD of mPPARα), TR (LBD) of hTRβ), COUP (LBD of COUP-TFI). Three independent colonies from each transformation were selected and analyzed for expression of […] activities by liquid ONPG assay (FIG. 6) after treatment with 1 μM of corresponding ligands (closed bars), or with equal concentration of vehicle alone (open bars). […] The ligands used in these experiments were atRA, VitD3 (1,25-dihydroxyvitamin D3), and Wy (Wy 14,642). […] In the absence of ligand, RAC3 can interact with RAR and PPAR.

[2] = target: T2, Gal4 DBD fusion of the LBD of hRARα (Homo sapiens, UniProt P10276); experiment: Coactivation of Gal-RAR on Gal4-tk-Luc reporter in A549 cells; assay type: cell-based; settings: overexpression of RAC3, 100 nM atRA, 24 hours
T2 construct: Gal4 DBD fusion of the LBD of hRARα (Gal-RAR); expressed in transfected cells; host or cells: A549 human lung carcinoma cells
T2 sequence (P10276 183-417 limits assumed): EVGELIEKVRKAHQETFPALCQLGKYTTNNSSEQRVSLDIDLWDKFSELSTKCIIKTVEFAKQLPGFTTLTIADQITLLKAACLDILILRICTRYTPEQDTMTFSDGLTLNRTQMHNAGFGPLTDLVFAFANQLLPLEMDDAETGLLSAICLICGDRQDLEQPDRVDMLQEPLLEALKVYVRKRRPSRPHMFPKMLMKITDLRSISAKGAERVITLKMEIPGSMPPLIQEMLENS
T2 sequence (Q9Y6Q9 with tags, fused parts or gaps isoform Q9Y6Q9-5 D131E/G132A/T187P/E704Q/DEL1268-1272 partner): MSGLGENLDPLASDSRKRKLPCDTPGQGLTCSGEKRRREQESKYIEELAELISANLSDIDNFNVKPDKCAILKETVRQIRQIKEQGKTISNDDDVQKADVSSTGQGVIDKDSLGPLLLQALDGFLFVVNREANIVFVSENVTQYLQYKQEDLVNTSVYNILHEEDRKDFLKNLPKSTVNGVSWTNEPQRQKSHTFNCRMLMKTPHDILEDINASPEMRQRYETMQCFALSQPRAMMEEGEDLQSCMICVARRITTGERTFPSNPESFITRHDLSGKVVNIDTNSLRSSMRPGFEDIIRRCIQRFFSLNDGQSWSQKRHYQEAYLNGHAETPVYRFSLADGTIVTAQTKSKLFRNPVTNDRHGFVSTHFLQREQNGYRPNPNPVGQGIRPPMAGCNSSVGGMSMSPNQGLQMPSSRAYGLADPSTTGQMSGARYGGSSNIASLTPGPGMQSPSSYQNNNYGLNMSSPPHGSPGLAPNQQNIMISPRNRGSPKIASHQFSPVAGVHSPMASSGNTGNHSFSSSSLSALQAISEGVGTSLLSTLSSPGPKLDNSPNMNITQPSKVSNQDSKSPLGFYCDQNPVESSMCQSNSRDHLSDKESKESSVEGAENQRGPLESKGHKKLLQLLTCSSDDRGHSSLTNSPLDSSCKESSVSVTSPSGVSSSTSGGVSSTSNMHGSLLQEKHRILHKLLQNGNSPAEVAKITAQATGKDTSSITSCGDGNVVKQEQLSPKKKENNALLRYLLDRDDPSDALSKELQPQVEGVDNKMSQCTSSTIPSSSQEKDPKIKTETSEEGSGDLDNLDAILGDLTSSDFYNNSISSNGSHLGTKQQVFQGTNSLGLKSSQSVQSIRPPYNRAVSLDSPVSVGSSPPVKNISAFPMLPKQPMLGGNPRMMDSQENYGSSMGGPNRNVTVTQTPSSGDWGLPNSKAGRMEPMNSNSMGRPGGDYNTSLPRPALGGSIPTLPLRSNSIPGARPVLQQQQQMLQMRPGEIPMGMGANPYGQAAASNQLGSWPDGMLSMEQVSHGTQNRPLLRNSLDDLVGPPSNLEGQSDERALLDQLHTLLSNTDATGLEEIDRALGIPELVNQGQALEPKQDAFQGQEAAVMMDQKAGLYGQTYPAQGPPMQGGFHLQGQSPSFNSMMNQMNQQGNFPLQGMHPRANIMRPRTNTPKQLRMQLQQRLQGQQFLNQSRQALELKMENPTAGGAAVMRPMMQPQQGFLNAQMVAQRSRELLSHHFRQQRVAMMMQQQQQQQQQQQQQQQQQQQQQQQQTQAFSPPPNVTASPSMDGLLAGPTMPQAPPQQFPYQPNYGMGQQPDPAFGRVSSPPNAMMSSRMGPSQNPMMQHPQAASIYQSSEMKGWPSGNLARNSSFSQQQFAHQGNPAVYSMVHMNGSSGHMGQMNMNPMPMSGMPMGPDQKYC
Experimental: Monkey kidney-derived CV-1 cells and human lung carcinoma A549 cells were grown in phenol-free DMEM medium supplemented with 10% charcoal-stripped fetal bovine serum (Gibco). One day before transfection, cells were seeded in 12-well plates at a density of 50,000 cells per well. A mixture of DNAs was prepared that contained 0.5 μg of expression vector, 0.5 μg of pCMX-βGal used as internal control for transfection efficiency, 1 μg of luciferase reporter, and 1.5 μg of carrier DNA (PGEM) in a final volume of 30 μl. The DNA solution was mixed dropwise with one volume of 0.5 M CaCl2 and two volumes of 2×BBS (50 mM N,N-bis(2-hydroxyethyl)-2-aminoethanesulfonic acid (BES; Calbiochem), 280 mM NaCl, 1.5 mM Na2HPO4, pH 6.95). DNA precipitates were allowed to form at room temperature for 10 minutes and applied evenly to the cell cultures. Cells were allowed to transfect for 12 hours, then the precipitates were removed by washing transfected cells twice with phosphate buffered saline (PBS). […]
Luciferase and β-galactosidase assays were used to analyze the cultures. […] The luciferase activities were determined with MLX microtiter plate luminometer (Dynex) using 100 μl of assay solution (0.1 M KPO4, 5 mM ATP, 10 mM MgCl2) and 100 μl of luciferin solution (0.01 M D-luciferin in 0.1 M KPO4, pH 7.8). […]

histone = experiment: Histone acetyltransferase (HAT) activity; assay type: biochemical; settings: compared with the p/CAF; unpublished data

Substance: RAC3: transcriptional coactivator of steroid/nuclear receptors, protein of about 1417 amino acids (SEQ ID NO:2); RAC3.1 is the two-hybrid clone, amino acids 401–1204
- interaction with VDR [1]: ligand-dependent manner
- enhancement of ligand-dependent transcriptional activation by Gal4 DBD fusion of RAR [2]: about two-fold
- HAT activity (histone): very weakly
